Test results: US20210047428A1

Legend:
[1] = molecular target: duck egg lysozyme (DEL), soluble recombinant (duck) (UniProt P00705); test: BLI (BLItz), biotinylated Fab on streptavidin biosensor, soluble monomeric DEL 0.03-0.25 µM, global fit
[2] = molecular target: HEL^3X (hen egg lysozyme R21Q, R73E, D101R), soluble recombinant (hen) (UniProt P00698); test: BLI; against WT HyHEL10 on HEL^3X
[3] = molecular target: HEL^3X (hen egg lysozyme R21Q, R73E, D101R), soluble recombinant (hen) (UniProt P00698); test: BLI; against I29F Fab on DEL
[4] = molecular target: duck egg lysozyme (DEL), soluble recombinant (duck) (UniProt P00705); test: BLI; against I29F Fab on DEL
[5] = molecular target: HEL R21Q R73K D101R (self with foreign 73) (hen) (UniProt P00698); test: BLI; against I29F Fab on DEL
[6] = molecular target: HEL R21Q R73E L75A D101R (self with foreign 75) (hen) (UniProt P00698); test: BLI; against I29F Fab on DEL
[7] = molecular target: HEL R21Q R73K L75A D101R (self with foreign 73, 75) (hen) (UniProt P00698); test: BLI; against I29F Fab on DEL
[8] = molecular target: HEL R21Q G71R R73K L75A N77G D101R (self with foreign 71, 73, 75, 77) (hen) (UniProt P00698); test: BLI; against I29F Fab on DEL
[9] = molecular target: duck egg lysozyme (DEL), soluble recombinant (duck) (UniProt P00705); test: BLI; against WT HyHEL10 on DEL
[10] = molecular target: HEL^3X (hen egg lysozyme R21Q, R73E, D101R), soluble recombinant (hen) (UniProt P00698); test: BLI (BLItz), biotinylated Fab on streptavidin biosensor, soluble monomeric HEL3X, global fit
[11] = molecular target: HEL^3X (hen egg lysozyme R21Q, R73E, D101R), soluble recombinant (hen) (UniProt P00698); test: BLI, Fab on streptavidin sensor
[12] = molecular target: duck egg lysozyme (DEL), soluble recombinant (duck) (UniProt P00705); test: BLI, Fab on streptavidin sensor
[13] = molecular target: HEL R21Q R73K D101R (self with foreign 73) (hen) (UniProt P00698); test: BLI, Fab on streptavidin sensor
[14] = molecular target: HEL R21Q R73E L75A D101R (self with foreign 75) (hen) (UniProt P00698); test: BLI, Fab on streptavidin sensor
[15] = molecular target: HEL R21Q R73K L75A D101R (self with foreign 73, 75) (hen) (UniProt P00698); test: BLI, Fab on streptavidin sensor
[16] = molecular target: HEL R21Q G71R R73K L75A N77G D101R (self with foreign 71, 73, 75, 77) (hen) (UniProt P00698); test: BLI, Fab on streptavidin sensor
[17] = molecular target: duck egg lysozyme (DEL), soluble recombinant (duck) (UniProt P00705); test: BLI (BLItz), biotinylated Fab on streptavidin biosensor, soluble monomeric DEL, global fit
[18] = molecular target: duck egg lysozyme (DEL), soluble recombinant (duck) (UniProt P00705); test: BLI; affinity for DEL against affinity for HEL^3X
[19] = molecular target: HEL^3X (hen egg lysozyme R21Q, R73E, D101R), soluble recombinant (hen) (UniProt P00698); test: BLI, highest concentration of HEL^3X tested
[20] = molecular target: HEL^3X (hen egg lysozyme R21Q, R73E, D101R), soluble recombinant (hen) (UniProt P00698); test: BLI
[21] = molecular target: duck egg lysozyme (DEL), soluble recombinant (duck) (UniProt P00705); test: BLI
[22] = molecular target: duck egg lysozyme (DEL), soluble recombinant (duck) (UniProt P00705); test: BLI (BLItz), biotinylated Fab on streptavidin biosensor, soluble monomeric DEL 0.025-0.25 µM, global fit
[23] = molecular target: duck egg lysozyme (DEL), soluble recombinant (duck) (UniProt P00705); test: BLI (BLItz), biotinylated Fab on streptavidin biosensor, soluble monomeric DEL 0.03-0.5 µM, global fit
[24] = molecular target: HEL^R21Q,R73E,C76S,C94S (HEL^2X-flex) (hen) (UniProt P00698); test: BLI (Example 10)

Fold change [2] [fold] | ΔΔG apparent [2] [kcal/mol] | Fold change [9] [fold] | ΔΔG apparent [9] [kcal/mol] | Kd [11] [nM] | Kd [12] [nM] | Ka [17] [M⁻¹] | Kd [17] [nM] | Substance | further results
-10.5 | 1.4 | 2.6 | -0.6 | 880 | 15 |  |  | HyHEL10 Fab I29F | Ka [1]: 6.4e+07 M⁻¹; Kd [1]: 16 nM; Fold change [3]: -56.1 fold; Fold change [4]: 0 fold; Fold change [5]: -22.3 fold; Fold change [6]: -54.5 fold; Fold change [7]: -1.8 fold; Fold change [8]: -2 fold; Ka [10]: 1.1e+06 M⁻¹; Kd [10]: 880 nM; Kd [13]: 350 nM; Kd [14]: 856 nM; Kd [15]: 28 nM; Kd [16]: 32 nM
 |  |  | -1.1 |  | 6 | 1.7e+08 | 5.8 | HyHEL10 Fab I29F/S52T | 
-9.6 | 1.3 | 245 | -3.3 | 807 | 0.164 | 6.1e+09 | 0.16 | HyHEL10 Fab I29F/S52T/Y53F | fold differential binding to foreign (DEL) over self (HEL^3X) [18]: 5000 fold
 |  | 23.8 | -1.9 |  | 2 |  |  | HyHEL10 Fab I29F/S52T/Y58F | 
 |  |  | -2.2 |  | 1 | 9.7e+08 | 1 | HyHEL10 Fab I29F/Y53F | 
 |  |  |  |  |  |  |  | HyHEL10 Fab S52R | fold lower affinity against unmutated HyHEL10 [19]: > 100 fold
 |  |  |  |  |  |  |  | HyHEL10 Fab S52R/Y53F | fold lower affinity against unmutated HyHEL10 [19]: > 100 fold
 |  | 1.2 | -0.1 |  | 33 | 3e+07 | 34 | HyHEL10 Fab S52T | 
-1.8 | 0.3 | 1.1 | -1.4 | 152 | 3.6 | 2.8e+08 | 3.6 | HyHEL10 Fab S52T/Y53F | 
3.5 | -0.7 | 80 | -2.6 | 24 | 0.5 | 1.99e+09 | 0.5 | HyHEL10 Fab S52T/Y53F/Y58F | fold increase of affinity against unmutated HyHEL10 [20]: 4 fold; fold lower affinity than the I29F-S52T-Y53F trio [21]: 3 fold
 |  |  |  |  | 3 | 3.8e+08 | 2.6 | HyHEL10 Fab S52T/Y58F | 
 |  | 4.8 | -0.9 |  | 8 |  |  | HyHEL10 Fab Y53F | Ka [22]: 1.2e+08 M⁻¹; Kd [22]: 8.4 nM
 |  |  | -0.8 |  | 11 | 9.4e+07 | 11 | HyHEL10 Fab Y58F | 
0 | 0 | 0 | 0 | 84 | 40 |  |  | HyHEL10 Fab, wild-type | Ka [23]: 2.5e+07 M⁻¹; Kd [23]: 40 nM; Ka [10]: 1.2e+07 M⁻¹; Kd [10]: 84 nM; Ka [24]: 1.6e+07 M⁻¹
